Where a chain is given by its changes, count along the chain named. Names may count otherwise.
Assays:
[1] = target: T1, cy-IL-36γ-Avi (in-vivo biotinylated) (cynomolgus monkey, limits assumed, site-specifically biotinylated in vivo on the C-terminal AviTag (BirA)); experiment: SPR (Biacore 8K), in-vivo biotinylated IL-36-Avi captured on CAP chip, bispecific IgG injected, 37°C
T1 construct: also called biotinylated cyno IL-36γ-Avi
T1 chain: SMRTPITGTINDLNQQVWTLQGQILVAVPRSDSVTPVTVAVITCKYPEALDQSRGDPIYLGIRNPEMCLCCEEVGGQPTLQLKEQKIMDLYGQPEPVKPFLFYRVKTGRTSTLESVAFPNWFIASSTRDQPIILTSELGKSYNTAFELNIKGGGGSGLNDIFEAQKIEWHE
Experimental: (§1) Surface plasmon resonance (SPR) analysis was used to determine the binding affinity for human and cynomolgus monkey IL-36 (“hu-IL-36” and “cy-IL-36,” respectively) using a BIACORE™ 8K instrument as described in Example 2. […] Briefly, a 1:4 dilution of Biotin CAPture Reagent (GE Healthcare) into HBS-EP buffer (0.01 M HEPES pH 7.4, 0.15 M NaCl, 3 mM EDTA, 0.005% Surfactant P20) was applied to a CAP sensor chip at 2 μL/min flow rate. For kinetics measurements, 1 nM biotinylated human and cyno IL-36α-Avi, IL-36γ-Avi; 0.8 nM biotinylated human and cyno IL-36β-Avi were captured at 10 μL/min to achieve 15-25 response units in the second flow cell (FC2). FC1 was kept as a reference. […] The sensorgram was recorded and subject to reference and buffer subtraction before data analysis with the BIACORE® 8K Evaluation Software (version 1.1.1.7442). […] Association rates (kₒₙ) and dissociation rates (koff) were calculated using a simple one-to-one Langmuir binding model. The equilibrium dissociation constant (KD) was calculated as the ratio of koff/kₒₙ.

[2] = target: T1, cy-IL-36γ-Avi (in-vivo biotinylated); experiment: SPR (Biacore 8K), in-vivo biotinylated IL-36-Avi captured on CAP chip, bispecific IgG injected, 25°C
Experimental: as §1

[3] = target: T2, hu-IL-36α-Avi (in-vivo biotinylated) (human, site-specifically biotinylated in vivo on the C-terminal AviTag (BirA)); experiment: as above
T2 construct: also called biotinylated human IL-36α-Avi
T2 chain: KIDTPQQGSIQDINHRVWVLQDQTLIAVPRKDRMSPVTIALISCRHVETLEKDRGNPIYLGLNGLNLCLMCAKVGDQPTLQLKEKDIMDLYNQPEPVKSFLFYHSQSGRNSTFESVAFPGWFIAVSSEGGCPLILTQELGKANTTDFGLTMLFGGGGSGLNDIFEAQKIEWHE
Experimental: as §1

[4] = target: T3, cy-IL-36β-Avi (in-vivo biotinylated) (cynomolgus monkey, site-specifically biotinylated in vivo on the C-terminal AviTag (BirA)); experiment: as above
T3 construct: also called cy-IL-36J-Avi [sic]; biotinylated cyno IL-36β-Avi
T3 chain: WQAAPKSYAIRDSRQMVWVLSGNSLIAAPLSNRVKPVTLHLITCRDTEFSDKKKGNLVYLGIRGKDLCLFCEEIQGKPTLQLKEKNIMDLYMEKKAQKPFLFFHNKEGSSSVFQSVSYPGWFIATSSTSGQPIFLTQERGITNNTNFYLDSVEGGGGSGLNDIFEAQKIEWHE
Experimental: as §1

[5] = target: T4, hu-IL-36γ-Avi (in-vivo biotinylated) (human, site-specifically biotinylated in vivo on the C-terminal AviTag (BirA)); experiment: as above
T4 construct: also called biotinylated human IL-36γ-Avi
T4 chain: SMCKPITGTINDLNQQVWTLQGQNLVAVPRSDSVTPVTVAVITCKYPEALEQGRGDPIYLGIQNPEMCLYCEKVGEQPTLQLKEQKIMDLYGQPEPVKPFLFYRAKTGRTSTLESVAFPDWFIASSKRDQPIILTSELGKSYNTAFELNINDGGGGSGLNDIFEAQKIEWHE
Experimental: as §1

[6] = target: T5, cy-IL-36α-Avi (in-vivo biotinylated) (cynomolgus monkey, limits assumed, site-specifically biotinylated in vivo on the C-terminal AviTag (BirA)); experiment: as above
T5 construct: also called biotinylated cyno IL-36α-Avi
T5 chain: T2 chain with I2S, D3E, T4M, Q7P, G8V, T24I, M34V, A40S, V74A
Experimental: as §1

[7] = target: T6, hu-IL-36β-Avi (in-vivo biotinylated) (human, site-specifically biotinylated in vivo on the C-terminal AviTag (BirA)); experiment: as above
T6 construct: also called biotinylated human IL-36β-Avi
T6 chain: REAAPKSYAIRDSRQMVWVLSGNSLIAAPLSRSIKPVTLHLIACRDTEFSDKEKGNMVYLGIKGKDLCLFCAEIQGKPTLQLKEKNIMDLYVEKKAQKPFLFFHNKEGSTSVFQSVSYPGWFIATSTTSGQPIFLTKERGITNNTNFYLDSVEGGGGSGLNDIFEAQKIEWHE
Experimental: as §1

Kd [1]: 0.94 nM | koff [1]: 0.000148 s⁻¹ | kon [1]: 158000 M⁻¹ s⁻¹ | Kd [2]: 0.79 nM | koff [2]: 0.00013 s⁻¹ | kon [2]: 165000 M⁻¹ s⁻¹ | Kd [3]: 1.17 nM | koff [3]: 0.000157 s⁻¹ | kon [3]: 134000 M⁻¹ s⁻¹ | Kd [4]: 0.97 nM | koff [4]: 6.32e-05 s⁻¹ | kon [4]: 65200 M⁻¹ s⁻¹ | Kd [5]: 0.72 nM | koff [5]: 0.000122 s⁻¹ | kon [5]: 171000 M⁻¹ s⁻¹ | Kd [6]: 1.93 nM | koff [6]: 0.000335 s⁻¹ | kon [6]: 174000 M⁻¹ s⁻¹ | Kd [7]: 0.63 nM | koff [7]: 4.77e-05 s⁻¹ | kon [7]: 76000 M⁻¹ s⁻¹
B1: mAb2.10/mAb6_2.7 multispecific common light chain antibody (IgG, knobs-into-holes, N297G) (bispecific antibody)
heavy 1: not shown
heavy 2: not shown
light: ESVLTQPPSVSGAPGQRVTISCTGSSSNIGAHYDVHWYQQLPGTAPKLLIYGNDNRPSGVPDRFSGSKSGTSASLAITGLQAEDEADYYCQSYDYSLSGYVFGGGTKLTVLGQPKAAPSVTLFPPSSEELQANKATLVCLISDFYPGAVTVAWKADSSPVKAGVETTTPSKQSNNKYAASSYLSLTPEQWKSHKSYSCQVTHEGSTVEKTVAPTECS
notes: tags removed; also called mAb2.10/mAb6_2.7 IgG; anti-IL-36 multispecific antibody

Source: patent US20230235040A1 (ALMIRALL S A, published 2023)
